Data: patent US20210395346A1 (SEOUL NATIONAL UNIVERSITY R AND DB FOUNDATION, published 2021)

Key:
[1] = target: T1, SARS-CoV-2 RBD variant E484K (New York) (SARS-CoV-2, UniProt P0DTC2 319-541); assay: ELISA (FIG. 18A)
T1 construct: domain: RBD

[2] = target: T2, SARS-CoV-2 RBD variant E484Q, L452R (India) (SARS-CoV-2, UniProt P0DTC2 319-541); assay: ELISA (FIG. 18A)
T2 construct: domain: RBD

[3] = target: T3, SARS-CoV-2 RBD variant K417V, N439K (Europe) (SARS-CoV-2, UniProt P0DTC2 319-541); assay: ELISA (FIG. 18A)
T3 construct: domain: RBD

[4] = target: T4, SARS-CoV-2 RBD variant L452R (California) (SARS-CoV-2, UniProt P0DTC2 319-541); assay: ELISA (FIG. 18A)
T4 construct: domain: RBD

[5] = target: T5, SARS-CoV-2 RBD variant N439K (Europe) (SARS-CoV-2, UniProt P0DTC2 319-541); assay: ELISA (FIG. 18A)
T5 construct: domain: RBD

[6] = target: T6, SARS-CoV-2 RBD variant N501Y (UK) (SARS-CoV-2, UniProt P0DTC2 319-541); assay: ELISA (FIG. 18A)
T6 construct: domain: RBD

[7] = target: T7, SARS-CoV-2 RBD variant K417N, E484K, N501Y (South Africa) (SARS-CoV-2, UniProt P0DTC2 319-541); assay: ELISA (FIG. 18A)
T7 construct: domain: RBD

[8] = target: T8, SARS-CoV-2 RBD variant S477N (New York) (SARS-CoV-2, UniProt P0DTC2 319-541); assay: ELISA (FIG. 18A)
T8 construct: domain: RBD

[9] = target: T9, SARS-CoV-2 RBD variant K417T, E484K, N501Y (Brazil) (SARS-CoV-2, UniProt P0DTC2 319-541); assay: ELISA (FIG. 18A)
T9 construct: domain: RBD

[10] = target: T1, SARS-CoV-2 RBD variant E484K (New York); assay: ELISA (FIG. 18B)
[11] = target: T2, SARS-CoV-2 RBD variant E484Q, L452R …; assay: ELISA (FIG. 18B)
[12] = target: T3, SARS-CoV-2 RBD variant K417V, N439K …; assay: ELISA (FIG. 18B)
[13] = target: T4, SARS-CoV-2 RBD variant L452R …; assay: ELISA (FIG. 18B)
[14] = target: T5, SARS-CoV-2 RBD variant N439K (Europe); assay: ELISA (FIG. 18B)
[15] = target: T6, SARS-CoV-2 RBD variant N501Y (UK); assay: ELISA (FIG. 18B)
[16] = target: T7, SARS-CoV-2 RBD variant K417N, E484K, …; assay: ELISA (FIG. 18B)
[17] = target: T8, SARS-CoV-2 RBD variant S477N (New York); assay: ELISA (FIG. 18B)
[18] = target: T9, SARS-CoV-2 RBD variant K417T, E484K, …; assay: ELISA (FIG. 18B)
[19] = target: T1, SARS-CoV-2 RBD variant E484K (New York); assay: ELISA (FIG. 18C)
[20] = target: T2, SARS-CoV-2 RBD variant E484Q, L452R …; assay: ELISA (FIG. 18C)
[21] = target: T3, SARS-CoV-2 RBD variant K417V, N439K …; assay: ELISA (FIG. 18C)
[22] = target: T4, SARS-CoV-2 RBD variant L452R …; assay: ELISA (FIG. 18C)
[23] = target: T5, SARS-CoV-2 RBD variant N439K (Europe); assay: ELISA (FIG. 18C)
[24] = target: T6, SARS-CoV-2 RBD variant N501Y (UK); assay: ELISA (FIG. 18C)
[25] = target: T7, SARS-CoV-2 RBD variant K417N, E484K, …; assay: ELISA (FIG. 18C)
[26] = target: T8, SARS-CoV-2 RBD variant S477N (New York); assay: ELISA (FIG. 18C)
[27] = target: T9, SARS-CoV-2 RBD variant K417T, E484K, …; assay: ELISA (FIG. 18C)
[28] = target: T1, SARS-CoV-2 RBD variant E484K (New York); assay: ELISA (FIG. 18E)
[29] = target: T2, SARS-CoV-2 RBD variant E484Q, L452R …; assay: ELISA (FIG. 18E)
[30] = target: T3, SARS-CoV-2 RBD variant K417V, N439K …; assay: ELISA (FIG. 18E)
[31] = target: T4, SARS-CoV-2 RBD variant L452R …; assay: ELISA (FIG. 18E)
[32] = target: T5, SARS-CoV-2 RBD variant N439K (Europe); assay: ELISA (FIG. 18E)
[33] = target: T6, SARS-CoV-2 RBD variant N501Y (UK); assay: ELISA (FIG. 18E)
[34] = target: T7, SARS-CoV-2 RBD variant K417N, E484K, …; assay: ELISA (FIG. 18E)
[35] = target: T8, SARS-CoV-2 RBD variant S477N (New York); assay: ELISA (FIG. 18E)
[36] = target: T9, SARS-CoV-2 RBD variant K417T, E484K, …; assay: ELISA (FIG. 18E)

Measured: binding result

B1: A-1H4 antibody (format in FIG. 18 not stated) (antibody, V domains shown)
VH: EVQLVESGGGLVQPGRSLRLSCAASGFTVSSNYMSWVRQAPGKGLEWVSGIYSGGSTYYADSVKGRFTISRDNSKNTLYLQMNSLRAEDTAVYYCARDLQEAGAFDIWGQGTMVTVSS
VL: ELQLTQSPSFLSASVGDRVTITCRASQGISSYLAWYQQKPGKAPKLLIYAASTLQSGVPSRFSGSGSGTEFTLTISSLQPEDFATYYCQQLNSYPRLTFGGGTKVEIK
binds: [1] | [2] | [3] | [4] | [5] | [6] | [7] | [8] | [9]

B2: A-2F1 antibody (format in FIG. 18 not stated) (antibody, V domains shown)
VH: QVQLVQSGGGLIQPGGSLRLSCAASGVTVSSNYMSWVRQAPGKGLEWVSVIYSGGSTFYADSVKGRFTISRDNSKNTLYLQMNSLRAEDTAVYYCARDLMEAGGMDVWGQGSTVTVSS
VL: ELALTQPPSASGSPGQSVTISCTASSSDIGASNHVAWYQQNPGKAPKLMIYGVSGRPSGVPDRFSGSKSGNTASLTVSGLQAEDEADYYCSSYAGSNILIFGGGTKLTVL
binds: [10] | [11] | [12] | [13] | [14] | [15] | [16] | [17] | [18]

B3: A-2H4 antibody (format in FIG. 18 not stated) (antibody, V domains shown)
VH: QMQLVESGGGLVQPGRSLRLSCAASGFTFSVYGMHWVRQAPGKGLEWVAVISYDGSNKYYADSVKGRFSISRDNSKNTLYLQMNSLRGEDTAVYYCAKGGPRPVVKAYGELDYYGMDVWGQGTTVTVSS
VL: ELALTQPASVSGSPGQSITISCTGTSSDIGGYEYVSWYQQHPGKAPKLIIYDVRDRPSGISNRFSGSKSGNTASLIISSLQAGDEADYYCFSYTSSGTYVFGSATKVTVL
binds: [19] | [20] | [21] | [22] | [23] | [24] | [25] | [26] | [27]

B4: E-3G9 antibody (format in FIG. 18 not stated) (antibody, V domains shown)
VH: QMQLVQSGAEVKKPGASVKVSCKASGHTITSYYMHWVRQAPGQGLEWMGIINPSGGSTSYAQKFQGRVTMTRDTSTSTVYMELSSLRSEDTAVYYCAREGVWDSSGYSSFDYWGQGTLVTVSS
VL: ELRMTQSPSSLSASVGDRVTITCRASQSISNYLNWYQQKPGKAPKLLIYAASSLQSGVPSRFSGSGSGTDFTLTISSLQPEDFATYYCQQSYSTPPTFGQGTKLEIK
binds: [28] | [29] | [30] | [31] | [32] | [33] | [34] | [35] | [36]
